Results published in the RNAGym collection of RNA variant scans (doi:10.1073/pnas.2313332121).

B1: TPR t1 (parent)
chain: GACCAAUCUGCCCUCAGAGCUCGAGAACAUCUUCGGAUGCAGAGGAGGCAGGCUUCGGUGGCGCGAUAGCGCCAACGUCCUCAACCUCCAAUGCAUCCCACCACAUGAUGAUGCCUGAAGAGCCUUGGUUUUUUG

Variants of: B1
Experiment: polymerase ribozyme fitness, log enrichment relative to wild type (log ratio); higher = more active; in vitro selection for triplet polymerase activity
Method in brief: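 A single round of triplicate in vitro selection, including frozen incubation at −7 °C, was applied to PCR-built, transcribed mutant libraries of each subunit of a heterodimeric triplet polymerase ribozyme. Illumina sequencing of input and output libraries retained genotypes with ≥10 input reads and ≥1 read per output. Fitness is the base-2 logarithm of genotype enrichment divided by wild-type enrichment, from inverse-variance-weighted replicate averages.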

Row | Variant | polymerase ribozyme fitness (log ratio)
1 | GACAAAUCUGCCCUCAGAGCUCGAGAACAUCUUCGGAUGCAGAGGAGGCAGGCUUCGGUGGCGCGAUAGGGCCAACGUACUCAACCUCCAAUGCAUCCCACCACAUGAUGAUGUCUGAAGAGCCUUGGUUUUUUG [C4A C70G C79A C114U] | -5.9
2 | GACAAAUCUGCCCUCAGAGCUCGAGAACAUCUUCGGAUGCAGAGGAGGCAGGCUUCGGUGGCGCGAUAGCGUCAACGUCCUCAACCUCCAAUGCAUCCCACCACAUGAUGAUGCCUGAAGAGCCUUGGUUUUUUG [C4A C72U] | -1.93
3 | GACAAAUCUGCCCUCAGAGCUCGAGAACAUCUUCGGAUGCAGAGGAGGCAGGCUUCGGUGGCGCGAUAGCGUCAACGUCCUCAACCUCCAAUGCAUCCCACCACAUGAUGAUGCCUCAAGAGCCUUGGUUAUUUG [C4A C72U G117C U131A] | -5.79
4 | GACAAAUCUGCCCUCAGAGCUCGAGAACAUCUUCGGAUGCAGAGGAGGCAGGCUUCGGUGGCGCGAUAGCGUCAACGUCCACAACCUCCAAUGCAUCCCACCACAUGAUGAUGCCUUAAGAACCUUGGUUUAUUG [C4A C72U U81A G117U G122A U132A] | -6.42
5 | GACAAAUCUGCCCUCAGAGCUCGAGAACAUCUUCGGAUGCAGAGGAGGCAGGCUUCGGUGGCGCGAUAGCGUCAACGUCCUCAACCUCCAAUGCAUCCCACCACAUGAAGAUGCUUGAAGAGCCUUGGUUUUUUG [C4A C72U U109A C115U] | -6.54
6 | GACAAAUCUGCCCUCAGAGCUCGAGAACAUCUUCGGAUGCAGAGGAGGCAGGCUUCGGUGGCGCGAUAGCGUCAACGUCCUCAACCUCCAAUGCAUCCCACCACAUGAUGAUGCCUGAAGAGCCUUGGUAUUUUG [C4A C72U U130A] | -2.53
7 | GACAAAUCUGCCCUCAGAGCUCGAGAACAUCUUCGGAUGCAGAGGAGGCAGGCUUCGGUGGCGCGAUAGCGCCAACGUCCUCAACAUCCAAUGCAUCCCACCACAUGAUGAUGCCUGAAGAGCCUUGGUUUUUUG [C4A C86A] | -2.74
8 | GACAAAUCUGCCCUCAGAGCUCGAGAACAUCUUCGGAUGCAGAGGAGGCAGGCUUCGGUGGCGCGAUAGCGCCAACGUCCUCAACGUCCAAUGCAUCCCACCACAUGAUGAUGCCUGAAGAGCCUUGGUUUUUUG [C4A C86G] | -2.58
9 | GACAAAUCUGCCCUCAGAGCUCGAGAACAUCUUCGGAUGCAGAGGAGGCAGGCUUCGGUGGCGCGAUAGCGCCAACGUCCUCAACCUUCAAUGCAUCCCACCACAUGAUGAUGCCUGAAUAGCCUUGGUUUUUUG [C4A C88U G120U] | -2.67
10 | GACAAAUCUGCCCUCAGAGCUCGAGAACAUCUUCGGAUGCAGAGGAGGCAGGCUUCGGUGGCGCGAUAGCGCCAACGUCCUCAACCUCCAAUGCAUCCCACCAAAUGAUGAUGCCUGAAGAGCCUUGGUUUUUUG [C4A C104A] | -2.32
11 | GACAAAUCUGCCCUCAGAGCUCGAGAACAUCUUCGGAUGCAGAGGAGGCAGGCUUCGGUGGCGCGAUAGCGCCAACGUCCUCAACCUCCAAUGCAUCCCACCACAUGAUGAUGGCUGAAGAGCCUUGGUUUUUUG [C4A C114G] | -4.25
12 | GACAAAUCUGCCCUCAGAGCUCGAGAACAUCUUCGGAUGCAGAGGAGGCAGGCUUCGGUGGCGCGAUAGCGCCAACGUCCUCAACCUCCAAUGCAUCCCACCACAUGAUGAUGUCUGAAGAGCAUUGGUUUUUUG [C4A C114U C124A] | -2.3
13 | GACAAAUCUACCCUCAGAGCUCGAGAACAUCUUCGGAUGCAGAGGAGGCAGGGUUCGGUUGCGCGAUAGUGCCUACGUCCUCAACCUCCAAUGCAUCCCACCACAUGAUGAUGCCUGAAGAGACUUGGUUCUUUG [C4A G10A C53G G60U C70U A74U C123A U131C] | -1.36
14 | GACAAAUCUGCCCUCAGAGCUCAAGAACAUCUUCGGAUGCAGAGGAGGCGGGCUUCGGUGCCGCGAUAGCGCCAACGUCCUCAACCCCCAAUGCGUCCCACCACAUGAUGAUGCCUUAAGAGGCUUGGUUUUUUG [C4A G23A A50G G61C U87C A95G G117U C123G] | -6.54
15 | GACAAAUCUGCCCUCAGAGCUCGAGAACAUCUUCGAAUGCAGAGGAGGCAGGCUUCGGUGGCGCGAUAGCGCAAACGUCCUCAACCUCCAAUGCAUCCCACCACAUGAUGAUGCCUGAAGAGCCUUGGUUUUUUG [C4A G36A C73A] | -3.19
16 | GACAAAUCUGCCCUCAGAGCUCGAGAACAUCUUCGCAUGCACAGGAGGAAGGCUUCGGUGGCGCGAUAGCGCCAACGUCCUCAACCUCCAAUGCAUCCCACCACAUGAUGAUGCCUGAAGAGCUUUGGUUUUUUG [C4A G36C G42C C49A C124U] | -4.12
17 | GACAAAUCUGCCCUCAGAGCUCGAGAACAUCUUCGGAUGCAGAGAAGGCAGGCUUCGGUGGCGCGAUAGCGACAACGUCCUCAACCUCCAAUGCAUCCCACCACAUGAUGAUGCCUGAAGAGACUUGGUUUUUUG [C4A G45A C72A C123A] | -0.972
18 | GACAAAUCUGCCCUCAGAGCUCGAGAACAUCUUCGGAUGCAGAGAAGGCAGCCUUCGGUGGCGCGAUAGCGCCAACGUCCUCAACCUCCAAUGCAUCCCACCACAUGAUGAUGCCUGAAGAGCCUUGGUUUUUUG [C4A G45A G52C] | -2.98
19 | GACAAAUCUGCCCUCAGAGCUCGAGAACAUCUUCGGAUGCAGAGCAGGCAGGCUUCGGUGGCGCGAUAGCGCCAACGUCCUCAACCUCCAAUGCAUCCCACCACAUGAUGAUGCCUGAAAAGCCUUCGUUUUUUG [C4A G45C G120A G127C] | -1.29
20 | GACAAAUCUGCCCUCAGAGCUCGAGAACAUCUUCGGAUGCAGAGGAGCCAGGCUUCGGUGACGCGAUAGCGCCAACGUCCCCAACCUCCAAUGCAACCCACCACAUGAUGAUGCCUGAAGAGCCUUGGUUUUUUG [C4A G48C G61A U81C U96A] | -3.76
21 | GACAAAUCUGCCCUCAGAGCUCGAGAACAUCUUCGGAUGCAGAGGAGGCAGAAUUCGGUGGCGCGAUAGCGUCAACGUCCUCAACCUCCUAUGCAUCCCACCACAUGAUGAUGCCUGAAGAGCCUUGGUCUUUUG [C4A G52A C53A C72U A90U U130C] | -3.37

Row | Variant | polymerase ribozyme fitness (log ratio)
22 | GACAAAUCUGCCCUCAGAGCUCGAGAACAUCUUCGGAUGCAGAGGAGGCAGGCUUCGGUAGCGCGAUAGCGCCAACGCCCUCAACCUCCAAUGCAUCCCACCACAUGAUGAUGCCUGAAGAGCCUUGGUUUUUUG [C4A G60A U78C] | -2.08
23 | GACAAAUCUGCCCUCAGAGCUCGAGAACAUCUUCGGAUGCAGAGGAGGCAGGCUUCGGUGACGCGAUAGCGCCAACGUCCUCAACCUCCAAUGCAUCCCACCACAUGAUGAUGCCUGAAGAGCCUUAGUUUUUUG [C4A G61A G127A] | -2.92
24 | GACAAAUCUGCCCUCAGAGCUCGAGAACAUCUUCGGAUGCAGAGGAGGCAGGCUUCGGUGACGCGAUAGCGCCAACGACCUCAACCUCCAAUGCAUCCCACCACAUGAUGAUGCCUGAAGAGCCUUGUUUUUUUG [C4A G61A U78A G128U] | -1.35
25 | GACAAAUCUGCCCUCAGAGCUCGAGAACAUCUUCGGAUGCAGAGGAGGCAGGCUUCGGUGCCGCGAUAGCGCCAACGUGCUCAACCUCCAAUGCAUCCCACCACAUGAUGAUGCCUGAAGAGCCUUGGUUUUUUG [C4A G61C C79G] | -3.95
26 | GACAAAUCUGCCCUCAGAGCUCGAGAACAUCUUCGGAUGCAGAGGAGGCAGGCUUCGGUGGCGCGAUACCGCCAACGUCCUCAACCUCCAAUGCAUCCCACCACAUGAUGAUGCCUGAAGAGCCUUGGUUUUUUG [C4A G69C] | -3.61
27 | GACAAAUCUGCCCUCAGAGCUCGAGAACAUCUUCGGAUGCAGAGGAGGCAGGCUUCGGUGGCGCGAUAUCGCCAACGUCCUCAACCUCCAAUGCAUCCCACCACAUGAUGAUGCCUGAAGAGCCUUGGUUUUUUG [C4A G69U] | -0.0821
28 | GACAAAUCUGCCCUCAGAGCUCGAGAACAUCUUCGGAUGCAGAGGAGGCAGGCUUCGGUGGCGCGAUAGCGCCAACGUCCUCAACCUCCAAUACAUCCCACCACAUGAUGAUGCCUGAAGAGCCUUGGUUUUUUG [C4A G93A] | -1.73
29 | GACAAAUCUGCCCUCAGAGCUCGAGAACAUCUUCGGAUGCAGAGGAGGCAGGCUUCGGUGGCGCGAUAGCGCCAACGUCCUCAACCUCCAAUCCAUCCCACCACAUGAUGUUGCCUGAAGAGCCUUGGUUUUUUG [C4A G93C A111U] | -4.69
30 | GACAAAUCUGCCCUCAGAGCUCGAGAACAUCUUCGGAUGCAGAGGAGGCAGGCUUCGGUGGCGCGAUAGCGCCAACGUCCUCAACCUCCAAUGCAUCCCACCACAUGAUGAUGCCUCAAGAGCCUUGGUUUUUUG [C4A G117C] | -4.54
31 | GACAAAUCUGCCCUCAGAGCUCGAGAACAUCUUCGGAUGCAGAGGAGGCAGGCUUCGGUGGCGCGAUAGCGCCAACGUCCUCAACCUCCAAUGCAUCCCACCACAUGAUGAUGCCUGAAGAGCCUUAGUUUUUUG [C4A G127A] | -1.82
32 | GACAAAACUGCCCUCAGAGCUCGAGAACAUCUUCGGAUGCAGAGGAGGCAGGCUUCGGUGGCGCGAUAGCGCCAACGUCCUCAACCUCCAAUGCAUCCCACCACAUGAUGAUGCCUGAAGAGCCUUGGUUUUUUG [C4A U7A] | -0.986
33 | GACAAAGCUGCCCUCAGAGCUCGAGAACAUGUUCGGAUGCAGAGGAGGCAGGCUUCGGUGGCGCGAUAGGGCCAACGUCCUCAACUCCCAAUGCAUCCCACCACAUGAUGAAGCCUGAAGAGCCUUGGUUUUUUG [C4A U7G C31G C70G C86U U87C U112A] | -5.92
34 | GACAAAUCUGCCCUCAGAGCGCGAGAACAUCUUCGGAUGCAGAUGAGGCAGGCUUCGGUGGCGCGAUAGCGCCAACGUCCUAAACCUCCAAUGCAUCCCACCACAUGAUGAUGCCUGAAGAGCGUUGGUUUUUUG [C4A U21G G44U C82A C124G] | -3.89
35 | GACAAAUCUGCCCUCAGAGCUCGAGAACAUCUUCGGAUGCAGAGGAGGCAGGCUCCGGUGGCGCGAUAGCGCCAACGUCCUCAACCUCCAAUGCAUCCCACCACAUGAUGAUGCCUGAAGAGCCUUGGUUUUUUG [C4A U55C] | -2.5
36 | GACAAAUCUGCCCUCAGAGCUCGAGAACAUCUUCGGAUGCAGAGGAGGCAGGCUUCGGCGGCGCGAUAUCGCCAACGUCCUCAACCUCCAAUGCAUCCCACCACAUGAUGAUGCUUGAAGAGCCUUGGUUUUUUG [C4A U59C G69U C115U] | -3.99
37 | GACAAAUCUGCCCUCAGAGCUCGAGAACAUCUUCGGAUGCAGAGGAGGCAGGCUUCGGUGGCGCGAUAGCGCCAACGCCCUCAACCUCCAAUGCAUCCCACCACAUGAUGAUGCCUGAAGAGCCUUGGUUUUUUG [C4A U78C] | -1.45
38 | GACAAAUCUGCCCUCAGAGCUCGAGAACAUCUUCGGAUGCAGAGGAGGCAGGCUUCGGUGGCGCGAUAGCGCCAACGUCCUCAACCUCCAAUGCAUCCCACCACAUGAUGAAGCCUGAUGAGUCCUGGUUUUUUG [C4A U112A A119U C123U U125C] | -0.636
39 | GACGAAUCUGCCCUCAGAGCUCGAGAACAUCUUCGGAUGCAGAGGAGGCAGGCUUCGGUGGCGCGAUAGCGCCAACGUCCUCAACCUCCAAUGCAUCCCACCACAUGAUGAUGCCUGAAGAGCCUUGGUUUUUUG [C4G] | -1.33
40 | GACGCAUCUGCCCUCAGAGCUCGAGAACAUCUUCGGAUGCAGAGGAGGCAGGCUUCGGUGUCGCGAUAGCGCCAACGUCCUCACCCUCCAAUGCAUCCCACCACAUGAAGAUGCCUGAAGAGCCUUGGUUGUUUG [C4G A5C G61U A84C U109A U131G] | -5.51
41 | GACGAAUCUGCCCUCAGCGCUCGAGAACAUCUUCGGAUGCAGAGGAGGCAGGCUUCGGUGGCGCGAUAGCGCCAACGUCCUCAACCUCCAAUGCAUCCCACCACAUGAUGAUGCCUGAAGAGCCUUGGUUUUUUG [C4G A18C] | -3.16
42 | GACGAAUCUGCCCUCAGAGCUCGCGAACAUCUUCGGAUGCAGAGGAGGCAGGCUUCGGUGGCGCGAUAGCGCCAACGUCCUCAACCUCCAAUGCAUCCCCCCACAUGAUGAAGCCGGAAGAGCCUUGGUUUUUUG [C4G A24C A100C U112A U116G] | -5.42
